Common to all, as to assay type: cell-based, human
One experiment concerns Flp-In T-REx-293 cells. Briefly: Tetracycline-inducible P-Tet TL reporter HDR and mutEJ assay with or without doxycycline. Here is the method: To ask if active transcription was required for the transcribed strand bias in HDR at nicks, derivatives of the TLTP and TLNT reporters were created in which a tetracycline-inducible (P-Tet) was substituted for the constitutive SFFV promoter upstream of GFP. TheseP-Tet TLTP and P-Tet TLNT reporters were stably integrated at the unique FRT site in Flp-In™ T-REx™-293 cells. Cells were cultured with (ON) or without (OFF) 1 μg/ml doxycycline, transfected with an I-AniI expression construct and the pCS14GFP plasmid dsDNA donor, and after 8-9 days of culture, doxycycline was added to the OFF cells to permit detection of HDR (GFP+) and mutEJ (mCherry+) events that had occurred in the absence of transcription. Active transcription increased the frequency of HDR at a transcribed-strand nick 2.5-fold, but reduced the frequency of HDR at a non-transcribed strand nick 4-fold (FIG. 9C). These opposing effects together accounted for the 8-fold greater frequency of HDR at a transcribed strand nick in a transcribed gene (FIG. 9B). […] Without wishing to be bound by theory, the transcription-associated strand bias of HDR at nicks may reflect unwinding ahead of the transcription apparatus that exposes the recombinogenic 3′ end of a transcribed strand nick that stimulates HDR, while occlusion of the 3′ end and exposure of the less recombinogenic 5′ end of a non-transcribed strand nick may hinder HDR (FIG. 9D). Similarly, the 2-fold reduction in mutEJ observed at DSBs, but not at nicks (FIG. 17B), may be caused by occlusion of the DSB by factors associated with the transcription apparatus.
(§1) Cell culture and transfection. […]
Flow cytometry. Cells were fixed in 2% formaldehyde and analyzed on an LSR II™ flow cytometer (Becton Dickinson, Franklin Lakes, N.J.). […]

The next experiment relates to 293T-TL7TP line. Briefly: TL reporter mutagenic end joining (mCherry+) flow assay, I-AniI, 293T-TL7TP line. Particulars: mCherry+ cells, nicks or DSBs. From the text:
Damage associated with gene targeting must be minimized for these applications. While the sequence-specificity of I-AniI limits its application to genome engineering, it is useful as a model in this context, as it cuts DNA to generate 5′-phosphate and 3′-hydroxyl ends like the FokI cleavage domain^13 of zinc finger or TALE nucleases suited for genome engineering applications. The TL reporter was used to quantify mutagenic end joining (EJ) accompanied by +2 frameshift that allows the mCherry gene to be translated (FIG. 1B). In the 293T-TL7TP line, the frequency of nick-initiated mutagenic EJ was nearly two orders of magnitude lower than that of DSB-initiated mutagenic EJ, regardless of donor (FIG. 3E). RAD51K133R expression increased the frequency of mutagenic EJ, but the frequency of nick-initiated mutagenic EJ remained lower than that of DSB-initiated mutagenic EJ (FIG. 3E). […]
Flow cytometry data were analyzed using FlowJo™ (Tree Star, Ashland, Oreg.) flow cytometry analysis software and frequencies were transferred to Microsoft Excel™ in which statistical significance was determined by two-tailed t-test. […]
(§2) Flow cytometry. Cells were fixed in 2% formaldehyde and analyzed on an LSR II™ flow cytometer (Becton Dickinson, Franklin Lakes, N.J.). […] GFP, mCherry, and mTagBFP fluorescence were detected with 488 nm, 561 nm 406 nm and 641 nm lasers, respectively. […]

For the next experiment, the system named is 293T-TL7TP cells. The experiment is described as follows: Traffic Light (TL) reporter HDR (GFP+) flow assay, I-AniI nickase or cleavase, 293T-TL7TP clonal line. The note with it: I-AniI nick, 99 nt ssDNA donors. From the text:
Damage to the transcribed DNA strand is preferentially detected and repaired in transcription-coupled nucleotide excision repair^7, and transcribedstrand nicks can arrest transcriptional elongation in human cell extracts^8. […] Chromosomal repair targets were derived from the TL reporter^9. TLTP and […] reporters carry an I-AniI site oriented for nicking the transcribed or non-transcribed strand, respectively (FIGS. 1A and 5A-5E). HDR that replaces the I-AniI site and nonsense codons yields GFP+ cells (FIGS. 1B and 5A-5E). […] GFP+ cells among I-AniI-expressing (BFP+) cells were quantified 3 days later.
(§3) Flow cytometry data were analyzed using FlowJo™ (Tree Star, Ashland, Oreg.) flow cytometry analysis software and frequencies were transferred to Microsoft Excel™ in which statistical significance was determined by two-tailed t-test. In all experiments I-AniI was co-expressed with mTagBFP (BFP) and GFP+ and mCherry+ frequencies among BFP+ cells are shown.
Damage to the transcribed strand is preferentially detected and repaired in transcription-coupled nucleotide excision repair (16), and transcribed strand nicks can arrest transcriptional elongation in human cell extracts (17). […]

In another experiment the test system is HT1080-TL4TP clonal line. Briefly: TL reporter HDR (GFP+) flow assay, I-AniI nickase or cleavase, HT1080-TL4TP clonal line. Particulars: I-AniI nick, ssDNA donors. Here is the method:
as §3
ssDNA molecules can serve as donors for HDR at DSBs (22-24). It was asked if they can also serve as donors for HDR at nicks using 99 nt ssDNA oligonucleotides in which a central 17 nt heterologous region corrects the mutations in the defective target gene (FIG. 10A). […] No donor strand bias was evident at DSBs.
Flow cytometry, HDR and mutEJ frequencies. Cells were processed for flow cytometry as described previously (13). In experiments with I-AniI, which was co-expressed with mTagBFP (BFP), data are presented as GFP+ and mCherry+ frequencies among BFP+ cells, except in cases where flow was carried out more than 8 days post-transfection, by which time the BFP signal was largely extinguished.
as §1, §2

The test system of experiment [1] is 293T-TLTP and 293T-TLNT cell populations. Briefly: TL reporter HDR (GFP+) assay in 293T-TLTP and 293T-TLNT cell populations, I-AniI. Particulars: I-AniI nickase. The text has this:
Populations of 293T cells bearing either the TLTP or TLNT reporter at heterogeneous integration sites were transiently transfected with a construct co-expressing I-AniI and the blue fluorescent protein mTagBFP (BFP), and with the dsDNA plasmid donor pCS14GFP. This donor is homologous with the TLTP and TLNT reporters over a region extending 2.47 kb upstream and 0.56 kb downstream of the I-AniI site (FIG. 15A-15C). GFP+ cells among I-AniI-expressing (BFP+) cells were quantified at 3 days post-transfection. […] Nicks initiated HDR with nearly 8-fold greater frequency in the TLTP than in the TLNT population.
To learn what determines ssDNA donor strand bias, HDR by ssDNA donors complementary to the intact (cI) or nicked (cN) strand at transcribed and non-transcribed strand nicks in the TLTP and TLNT populations was compared. The TLTP and TLNT populations carry reporters delivered by lentiviruses and integrated at heterogeneous chromosomal positions, to minimize possible effects of replication direction on this assay.
To determine whether there is a predominant directionality to unwinding or resection, a comparison was made of HDR at nicks by ssDNA donors identical in length (75 nt) and centered on the nick or extending either 3′ or 5′ of the nick. […]

Where [2] appears, read: ON vs OFF, 1 μg/ml doxycycline, pCS14GFP dsDNA donor.

“Also recorded” adds a separate entry of the source.

In the case of `C[C@H]1c2cccc(O)c2C(=O)C2=C(O)[C@]3(O)C(=O)C(C(N)=O)=C(O)[C@@H](N(C)C)[C@@H]3[C@@H](O)[C@@H]21` [doxycycline], the “reduction in mutEJ at DSBs” value in the experiment on Flp-In T-REx-293 cells (ON vs OFF doxycycline, FIG. 17B, not at nicks) is recorded as 2 fold. In addition, in the experiment with Flp-In T-REx-293 cells (setting [2]), the “increase of the frequency of HDR at a transcribed-strand nick” value is recorded as 2.5 fold and the “reduction of the frequency of HDR at a non-transcribed strand nick” value was 4 fold.

B1: RAD51K133R: dominant negative RAD51 mutant which does not hydrolyze ATP, transiently expressed from pCMV-RAD51K133R-T2A-IFP-1.4 (protein, UniProt Q06609 2-339, looked up, variant K133R)
DNA repair protein RAD51 …: AMQMQLEANADTSVEEESFGPQPISRLEQCGINANDVKKLEEAGFHTVEAVAYAPKKELINIKGISEAKADKILAEAAKLVPMGFTTATEFHQRRSEIIQITTGSKELDKLLQGGIETGSITEMFGEFRTGRTQICHTLAVTCQLPIDRGGGEGKAMYIDTEGTFRPERLLAVAERYGLSGSDVLDNVAYARAFNTDHQTQLLYQASAMMVESRYALLIVDSATALYRTDYSGRGELSARQMHLARFLRMLLRLADEFGVAVVITNQVVAQVDGAAMFAADPKKPIGGNIIAHASTTRLYLRKGRGETRICKIYDSPCLPEAEAMFAINADGVGDAKD
modifications: T2A-IFP1.4 coexpression
As to B1, the “frequency of mutagenic EJ” value in the experiment on 293T-TL7TP line is “increased”. For the same molecule, the “frequency of HDR at nicks by ssDNA donor” value with 293T-TL7TP cells and in the experiment with HT1080-TL4TP clonal line was “stimulating” throughout. Further, the “effect on HDR at nicks in the transcribed or non-transcribed strand” value in experiment [1] is reported as “Stimulation was evident; also recorded: comparable effects”.

Source of the values: patent US20160040155A1, “ACTIVATING AN ALTERNATIVE PATHWAY FOR HOMOLOGY-DIRECTED REPAIR TO STIMULATE TARGETED GENE CORRECTION AND GENOME ENGINEERING” (UNIVERSITY OF WASHINGTON THROUGH ITS CENTER FOR …, priority 2013, published 2016).
